Data reported in US20130216547A1 (Regeneron, published 2013).
Changes are numbered by the printed parent chain. Numbers in names are those of the source.

T1: human big-endothelin-1 (big-ET-1) (human)
T1 peptide: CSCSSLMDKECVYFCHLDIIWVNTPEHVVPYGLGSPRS

T2: mouse big-ET-1 (mouse)
T2 peptide: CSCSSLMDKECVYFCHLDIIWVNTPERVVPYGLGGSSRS

T3: small-ET-1 (endothelin-1) (human)
T3 construct: 21 amino acid peptide, same for mouse and human; also called human small-ET-1; EDN-1
T3 peptide: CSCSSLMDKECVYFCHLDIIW

B1: H2M6495N (antibody, V domains shown)
VH: QVQLVESGGGVVQPGRSLRLSCAASGFTFRSYGMHWVRQAPGKGLEWVAVIWYDGSDKYYADSVKGRFTISRDNSKNTLYLQMNSLRAEDTAVYFCAKDEYKTRGGYFDYWGQGTLVTVSS
VL: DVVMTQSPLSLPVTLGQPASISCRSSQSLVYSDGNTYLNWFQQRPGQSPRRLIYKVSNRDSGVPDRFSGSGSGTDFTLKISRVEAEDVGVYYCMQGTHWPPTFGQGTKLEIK
notes: Hybridoma antibody, human variable domains, mouse IgG2 Fc (prefix H2M)
B2: H1M6492N (antibody, V domains shown)
VH: EVQLVESGGGLVKPGGSLRVSCVASGFTFSNAWMTWVRQTPGKGLECVGRIKSRTDGGTVDYVAPVKGRFTISRDDSKNTLYLQMNSLKAEDTAVYYCRADLDYWGQGTLVTVSS
VL: DVVMTQSPLSLPVSLGQPASISCRSSQSLVHSDGITYLNWFQQRPGQSPRRLIYKISNRDSGVPDRFSGSGSGTDFTLKFSRVEAEDVGVYFCMQGTHWPYTFGQGTKLEIK
notes: Hybridoma antibody, human variable domains, mouse constant domains; prefix H1M marks the Fc region (isotype not spelled out)
B3: H1M6494N (antibody, V domains shown)
VH: B2 VH
VL: B2 VL
notes: as for B2
B4: H2M6486N (antibody, V domains shown)
VH: EVQLVESGGGLVKPGGSLRLSCAASGFTFSSYNMNWVRQAPGKGLEWVSSISSSSSYIYYADSVKGRFTISRDNAKNSLYLQMNSLRAEDTAVYYCARDNWNYSFDYWGQGTLVTVSS
VL: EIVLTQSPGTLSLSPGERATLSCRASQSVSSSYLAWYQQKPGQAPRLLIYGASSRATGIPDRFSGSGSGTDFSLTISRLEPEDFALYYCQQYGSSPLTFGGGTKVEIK
notes: as for B1
B5: H4H6334P (antibody, V domains shown)
VH: EVQLVESGGGLVKPGGSLRLSCAVSGFTFSIDWMIWVRQAPGTGLEWVGRIKRKTDGGTTDYAAPVKGRFTISRDDSKNTLYLQMNSLKTEDTAIYYCATGGFERVGQGTLVTVSS
VL: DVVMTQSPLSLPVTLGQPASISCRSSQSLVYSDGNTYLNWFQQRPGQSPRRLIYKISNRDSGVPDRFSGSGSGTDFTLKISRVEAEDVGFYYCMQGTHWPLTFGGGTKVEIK
notes: Human IgG4 Fc (prefix H4H)
B6: H4H6328P (antibody, V domains shown)
VH: B1 VH with R30S, F95Y, K98R, E100G, K102G, T103S, G106N
VL: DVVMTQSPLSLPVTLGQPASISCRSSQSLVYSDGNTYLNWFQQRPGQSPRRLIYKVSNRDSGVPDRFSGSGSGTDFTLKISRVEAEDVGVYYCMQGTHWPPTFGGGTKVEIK
notes: Human IgG4 Fc (prefix H4H)
B7: H4H6495N (antibody, V domains shown)
VH: B1 VH
VL: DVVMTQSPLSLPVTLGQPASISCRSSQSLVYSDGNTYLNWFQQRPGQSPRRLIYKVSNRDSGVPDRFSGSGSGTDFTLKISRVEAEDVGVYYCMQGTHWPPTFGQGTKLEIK
notes: Human IgG4 Fc version of 6495N; also called 6495N (human IgG4 format)

Molecular target: T1, human big-endothelin-1 (big-ET-1)
Experiment: cell-based or functional assay

| Binder | Blocking IC50(M), 10 nM hBig-ET-1 + 3 nM hECE1 [Trial 1]; 293/ETaR/NFAT-Luc luciferase |
| --- | --- |
| B1 | 4.3e-09 M |
| B2 | 1.5e-09 M |
| B3 | 1.5e-09 M |
| B4 | 7.6e-09 M |

Molecular target: T1, human big-endothelin-1 (big-ET-1)
Experiment: cell-based or functional assay
Remark: another data set of the same source

| Binder | Blocking IC50(M), 10 nM hBig-ET-1 + 3 nM hECE1; 293/ETaR/NFAT-Luc luciferase |
| --- | --- |
| B5 | 6.8e-10 M |
| B6 | > 1e-07 M |
| B7 | 1.33e-08 M |

Molecular target: T2, mouse big-ET-1
Experiment: cell-based or functional assay

| Binder | Blocking IC50(M), 20 nM mBig-ET-1 + 5 nM mECE1; 293/ETaR/NFAT-Luc luciferase |
| --- | --- |
| B5 | > 1e-07 M |
| B6 | > 1e-07 M |

Molecular target: T1, human big-endothelin-1 (big-ET-1)
Experiment: SPR (Biacore T200), 37 C, mAb capture, peptide analyte
Description: (§1) Measurements were conducted on a T200 Biacore instrument (Biacore Life Sciences division of GE Healthcare, Piscataway, N.J.). […] Peptide binding was monitored for 3 min while dissociation of mAb-bound peptide was monitored for 4 min in HBST running buffer (0.01 M HEPES pH 7.4, 0.15 M NaCl, 3 mM EDTA, 0.005% v/v Surfactant P20). Kinetic association (kₐ) and dissociation (kd) rate constants were determined by processing and fitting the data to a 1:1 binding model using Scrubber 2.0 curve fitting software.

| Binder | Kd |
| --- | --- |
| B5 | < 0.05 nM |
| B6 | < 0.05 nM |
| B1 | < 0.05 nM |

Molecular target: T3, small-ET-1 (endothelin-1)
Experiment: as above
Description: as §1

| Binder | binding result |
| --- | --- |
| B6 | no binding |
| B1 | no binding |
| B2 | no binding |
| B3 | no binding |
| B4 | no binding |

Molecular target: T1, human big-endothelin-1 (big-ET-1)
Experiment: as above
Remark: another data set of the same source
Description: as §1

| Binder | Kd | T½ | koff | kon |
| --- | --- | --- | --- | --- |
| B5 | 0.043 nM | 133 min | 8.68e-05 s⁻¹ | 2.02e+06 M⁻¹ s⁻¹ |
| B6 | ≤ 0.00634 nM | 11600 min | ≤ 1e-06 s⁻¹ | 158000 M⁻¹ s⁻¹ |
| B7 |  | 0.3 min | 0.0399 s⁻¹ | 606000 M⁻¹ s⁻¹ |
| B1 |  | 11600 min | ≤ 1e-06 s⁻¹ | 117000 M⁻¹ s⁻¹ |
| B2 | 6.46 nM | 7 min | 0.0016 s⁻¹ | 248000 M⁻¹ s⁻¹ |
| B3 | 7.07 nM | 7 min | 0.00169 s⁻¹ | 239000 M⁻¹ s⁻¹ |
| B4 | 239 nM | 0.1 min | 0.0898 s⁻¹ | 380000 M⁻¹ s⁻¹ |

Molecular target: T2, mouse big-ET-1
Experiment: as above
Description: as §1

| Binder | Kd | T½ | koff | kon |
| --- | --- | --- | --- | --- |
| B5 | 58 nM | 25 min | 0.000456 s⁻¹ | 7900 M⁻¹ s⁻¹ |
| B4 | 160 nM | 0.1 min | 0.135 s⁻¹ | 830000 M⁻¹ s⁻¹ |

Molecular target: T1, human big-endothelin-1 (big-ET-1)
Experiment: SPR (Biacore T200), 37 C, mAb capture, peptide analyte; human IgG4 format (H4H), captured on mouse anti-human Fc surface; Table 3
Description: as §1

| Binder | Kd |
| --- | --- |
| B7 | 65.9 nM |

Molecular target: T1, human big-endothelin-1 (big-ET-1)
Experiment: SPR (Biacore T200), 37 C, mAb capture, peptide analyte; hybridoma mAb (H2M, mouse Fc), captured on rabbit anti-mouse surface; Table 2
Description: as §1

| Binder | Kd |
| --- | --- |
| B1 | ≤ 0.00853 nM |
